Positions count from the first letter of the chain named. Names and notes keep the numbering of the source. Read-outs that look alike come from different tables or passages of the source.

Data on 11 molecules can be found in publication PMC4456160 (Nature structural & molecular biology, 2015).

The labels stand for the following.
T1: full length ectodomain of human RGMC (eRGMC) (human, UniProt Q6ZVN8 36-400)
T1 sequence: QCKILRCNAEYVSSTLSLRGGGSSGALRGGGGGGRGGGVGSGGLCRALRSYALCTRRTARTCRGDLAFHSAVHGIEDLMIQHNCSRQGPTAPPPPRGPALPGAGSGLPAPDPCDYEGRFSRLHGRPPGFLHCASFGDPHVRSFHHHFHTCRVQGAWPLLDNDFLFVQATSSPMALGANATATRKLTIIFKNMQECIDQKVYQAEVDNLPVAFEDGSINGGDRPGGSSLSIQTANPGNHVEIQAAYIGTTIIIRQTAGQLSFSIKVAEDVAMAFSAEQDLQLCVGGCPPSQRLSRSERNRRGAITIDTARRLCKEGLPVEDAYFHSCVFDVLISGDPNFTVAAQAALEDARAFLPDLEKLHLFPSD

B1: N-terminal domain of human RGMA (RGMAND) (domain or fragment)
chain: TSPCKILKCNSEFWSATSGSHAPASDDTPEFCAALRSYALCTRRTARTCRGDLAYHSAVHGIEDLMSQHNCSKDGPTSQPRLRTLPPAGDSQERS
B2: N-terminal domain of human RGMC (RGMCND) (domain or fragment)
chain: QCKILRCNAEYVSSTLSLRGGGSSGALRGGGGGGRGGGVGSGGLCRALRSYALCTRRTARTCRGDLAFHSAVHGIEDLMIQHNCSRQGPTAPPPPRGPALPGAGSGLPAPDP
B3: RGMCND-L101P (domain or fragment)
chain: B2 chain with L66P
B4: RGMCND-G99R (domain or fragment)
chain: B2 chain with G64R
B5: human BMP2 (Bone Morphogenetic Protein 2), disulfide-linked dimer (ligand)
chain: QAKHKQRKRLKSSCKRHPLYVDFSDVGWNDWIVAPPGYHAFYCHGECPFPLADHLNSTNHAIVQTLVNSVNSKIPKACCVPTELSAISMLYLDENEKVVLKNYQDMVVEGCGCR
B6: full length ectodomain of human RGMB (eRGMB) (domain or fragment)
chain: QCRIQKCTTDFVSLTSHLNSAVDGFDSEFCKALRAYAGCTQRTSKACRGNLVYHSAVLGISDLMSQRNCSKDGPTSSTNPEVTHDPCNYHSHAGAREHRRGDQNPPSYLFCGLFGDPHLRTFKDNFQTCKVEGAWPLIDNNYLSVQVTNVPVVPGSSATATNKITIIFKAHHECTDQKVYQAVTDDLPAAFVDGTTSGGDSDAKSLRIVERESGHYVEMHARYIGTTVFVRQVGRYLTLAIRMPEDLAMSYEESQDLQLCVNGCPLSERIDDGQGQVSAILGHSLPRTSLVQAWPGYTLETANTQCHEKMPVKDIYFQSCVFDLLTTGDANFTAAAHSALEDVEALHPRKERWHIFPSSG
B7: mouse NEO1 fifth and sixth fibronectin type III domains (NEO1FN56) (domain or fragment)
chain: TPMMPPVGVQASILSHDTIRITWADNSLPKHQKITDSRYYTVRWKTNIPANTKYKNANATTLSYLVTGLKPNTLYEFSVMVTKGRRSSTWSMTAHGATFELVPTSPPKDVTVVSKEGKPRTIIVNWQPPSEANGKITGYIIYYSTDVNAEIHDWVIEPVVGNRLTHQIQELTLDTPYYFKIQARNSKGMGPMSEAVQFRTP
B8: mouse NEO1 FN5-FN6 with juxtamembrane stretch (NEO1FN56M) (domain or fragment)
chain: TPMMPPVGVQASILSHDTIRITWADNSLPKHQKITDSRYYTVRWKTNIPANTKYKNANATTLSYLVTGLKPNTLYEFSVMVTKGRRSSTWSMTAHGATFELVPTSPPKDVTVVSKEGKPRTIIVNWQPPSEANGKITGYIIYYSTDVNAEIHDWVIEPVVGNRLTHQIQELTLDTPYYFKIQARNSKGMGPMSEAVQFRTPKADSSDKMPNDQALGSAGKGSRLPDLGSDYKPPMSGSNSPHGSPTSPLDSN
B9: N-terminal domain of human RGMB (RGMBND) (domain or fragment)
chain: QCRIQKCTTDFVSLTSHLNSAVDGFDSEFCKALRAYAGCTQRTSKACRGNLVYHSAVLGISDLMSQRNCSKDGPTSSTNPEVTH
B10: secreted ectodomain of human BMPR1A (eBMPR1A) (receptor)
chain: TLAPEDTLPFLKCYCSGHCPDDAINNTCITNGHCFAIIEEDDQGETTLASGCMKYEGSDFQCKDSPKAQLRRTIECCRTNLCNQYLQPTLPPV

In data set [1] the target is human BMP2 (Bone Morphogenetic Protein 2), disulfide-linked dimer (human) (UniProt P12643). Kind of data set: SPR.
The target of data set [2] is B5. Put plainly: crystal structure.
Data set [3] has as its target B5. Kind of data set: SPR. In general terms: SPR reads the build-up and loss of mass on a sensor chip optically.
For data set [4], the target named is B6. Kind of data set: SPR.
Data set [5] deals with T1, full length ectodomain of human RGMC …. Kind of data set: SPR.
The data set “crystal structure” deals with the molecule itself. Kind of data set: crystal structure.
Data set [6] deals with B5. Put plainly: SAXS.
The target of data set [7] is B5. Kind of data set: crystal structure. This is another data set of the same source.
Data set [8] has as its target B6. Kind of data set: crystal structure.
The target of data set [9] is B6. Kind of data set: SAXS.
For data set [10], the target named is B5. Put plainly: SEC-MALS.
Data set [11] concerns the target B5. Put plainly: SPR. The source holds these as a separate data set.

With “RGMC H104A mutant (from UniProt Q6ZVN8 36-147) (domain or fragment)”, the Kd – broadly, the equilibrium constant for the complex coming apart – in data set [1] worked out at 280 nM.
With B1, the binding result in [2] is given as “binds”.
Consider B2, for which, in data set [3], the Kd is 124 nM. Moreover, in [2], the stoichiometry N (as a rule, a count of units in the complex or per binding partner) worked out at 2 RGMC per BMP2 dimer.
Turning to B3, binding in data set [3] was characterised by a dissociation constant (Kd) of 1500 nM. This lies in the single-digit micromolar range.
Still for that read-out and setting: to B4 belongs 910 nM.
B5: the binding result in data set [4] and in data set [5] was “binds” throughout. In addition, the “stoichiometry N” value in “crystal structure” stood at 2.
Consider B6, for which the “stoichiometry N” value was 2 eRGMB per BMP2 dimer (printed 2:2:2) in [6] and 2 RGMB per BMP2 dimer in data set [7].
With B7, the binding result in data set [8] is recorded as “binds”.
Turning to B8, the “stoichiometry N” value in [9] is 1 NEO1 per eRGMB (printed 2:2:2).
With B9, binding in data set [3] was characterised by a dissociation constant (Kd) of 88 nM. Also, in data set [10], the “stoichiometry N” value was 2 RGMBND per disulfide-linked BMP2 dimer (printed 2:2).
Molecule B10 came in with a Kd in data set [11] of 280 nM. Moreover, the “stoichiometry N” value in data set [10] was 2 eBMPR1A per disulfide-linked BMP2 dimer (printed 2:2).
